# In patent EP4725969A1 (Latticon (Suzhou) Biopharmaceuticals Co., Ltd., dated 2024):
# Tests used:
# [1] = molecular target: T1, recombinant human HER2 extracellular domain protein (human, UniProt P04626 23-652); experiment: BLI (ForteBio)
# T1 construct: range 23-652; Range is printed for the immunogen/panning protein; also called ErbB2; recombinant HER2 protein
# [2] = molecular target: T1, recombinant human HER2 extracellular …; experiment: BLI, Protein A capture
# [3] = molecular target: T1, recombinant human HER2 extracellular …; experiment: BLI, Protein A capture; remark: listed apart in the source
# [4] = molecular target: T1, recombinant human HER2 extracellular …; experiment: BLI, Protein A capture; remark: listed apart in the source
# [5] = molecular target: T2, human HER2 expressed on tumor cells (human, UniProt P04626 23-1255); experiment: flow cytometry, RT-112 cells
# T2 construct: whole, on cells; Cell line is named in each row's assay
# [6] = molecular target: T2, human HER2 expressed on tumor cells; experiment: flow cytometry, BT474 cells
binder,measurement,setting,value
"Mu2117KH (Fc fusion, scFv-hIgG1 Fc fusion of mAb2117 V regions, VL-(G4S)3-VH; also called chimeric single-chain antibody control; not shown: human IgG1 Fc) scFv: DVVLTQTPLSLPVSLGDQASISCRSSQSLVHSNGNTYLHWYLQKPGQSPKLLIYKVSNRFSGVPDRFSGSGSGTDFTLKISRVEAEDLGVYFCSQSTHVPYTFGGGTKLEIKGGGGSGGGGSGGGGSEVKIEESGGGLVKPGGSLKLSCAASGFTYSSYGMSWVRQTPEKRLEWVASISGGGSYTKYPDSVKGRFTISRDNAKNHLYLQMSSLRSEDTALYYCARDYAGFFDVWGAGTTVTVSS",Kd,[1],77.2 nM
same,koff,[1],0.00545 s⁻¹
same,kon,[1],70600 M⁻¹ s⁻¹
"Hu2126-H1K1 (antibody, human IgG1, V domains shown) VH: QVQLQESGPGLVKPSETLSLTCTASGYTFTDYSMHWVRQPPGKGLEWMGWINTETGEPTYADDFKGRFTFSLDTSKNQASLKLSSVTAADTAVYFCVRVGRYDYAMDYWGQGTTVTVSS VL: DIQMTQSPSSLSASVGDRVTITCKASQDVYTAVAWYQQKPGKAPKLLINSASYRYTGVPSRFSGSGSGTDFTLTISSLQPEDFATYYCQQHYSTPPTFGGGTKVEIK",Kd,[2],19.1 nM
same,koff,[2],0.0018 s⁻¹
same,kon,[2],94500 M⁻¹ s⁻¹
"Hu2126-H2K1 (antibody, human IgG1, V domains shown) VH: QVQLVQSGSELKKPGASVKVSCKASGYTFTDYSMHWVRQAPGQGLEWMGWINTETGEPTYADDFKGRFVFSLDTSVSTAYLQISSLKAEDTAVYFCVRVGRYDYAMDYWGQGTTVTVSS VL: DIQMTQSPSSLSASVGDRVTITCKASQDVYTAVAWYQQKPGKAPKLLINSASYRYTGVPSRFSGSGSGTDFTLTISSLQPEDFATYYCQQHYSTPPTFGGGTKVEIK",Kd,[2],6.89 nM
same,koff,[2],0.000581 s⁻¹
same,kon,[2],84300 M⁻¹ s⁻¹
same,Kd,[3],4.71 nM
same,koff,[3],0.000469 s⁻¹
same,kon,[3],99600 M⁻¹ s⁻¹
"Hu2126-H2K1-L71-H72b-Mu16 (antibody, IgG1, V domains shown, IgG1/Cκ; also called 7172b-Mu16) VH: QVQLVQSGSELKKPGASVKVSCKASGYTFTDYSMHWVRQAPGQGLEWMGWINTGTGEPTYADDFKGRFTISRDTSKSTAYLQISSLKAEDTAVYYCVRVGRYDYAMDYWGQGTTVTVSS VL: DIQMTQSPSSLSASVGDRVTITCRASQDVYTAVAWYQQKPGKAPKLLINRASSRPTGVPSRFSGSGSGTDFTLTISSLQPEDFATYYCQQYYSTPPTFGGGTKVEIK",Kd,[4],5.77 nM
same,koff,[4],0.000578 s⁻¹
same,kon,[4],100000 M⁻¹ s⁻¹
"Hu2126-H2K1-L71-H72b-Mu17 (antibody, IgG1, V domains shown, IgG1/Cκ; also called 7172b-Mu17) VH: QVQLVQSGSELKKPGASVKVSCKASGYTFTDYSMHWVRQAPGQGLEWMGWINTGTGEPTYADDFKGRFTISRDTSKSTAYLQISSLKAEDTAVYYCVRVGRYDYAMDYWGQGTTVTVSS VL: DIQMTQSPSSLSASVGDRVTITCRASQDVYTAVAWYQQKPGKAPKLLINSASSRPTGVPSRFSGSGSGTDFTLTISSLQPEDFATYYCQQYYSTPPTFGGGTKVEIK",Kd,[4],2.8 nM
same,koff,[4],0.000276 s⁻¹
same,kon,[4],98500 M⁻¹ s⁻¹
"Hu2126-H2K1-L71-H72b-Mu14 (antibody, IgG1, V domains shown, IgG1/Cκ; also called 7172b-Mu14; Hu2126-7172b-Mu14) VH: QVQLVQSGSELKKPGASVKVSCKASGYTFTDYSMHWVRQAPGQGLEWMGWINTGTGEPTYADDFKGRFTISRDTSKSTAYLQISSLKAEDTAVYYCVRVGRYDYAMDYWGQGTTVTVSS VL: DIQMTQSPSSLSASVGDRVTITCRASQDVYTAVAWYQQKPGKAPKLLINLASSRPTGVPSRFSGSGSGTDFTLTISSLQPEDFATYYCQQYYSTPPTFGGGTKVEIK",Kd,[4],0.825 nM
same,koff,[4],8.31e-05 s⁻¹
same,kon,[4],101000 M⁻¹ s⁻¹
"Hu2126-H2K1-L71-H72b-Mu15 (antibody, IgG1, V domains shown, IgG1/Cκ; also called 7172b-Mu15) VH: QVQLVQSGSELKKPGASVKVSCKASGYTFTDYSMHWVRQAPGQGLEWMGWINTGTGEPTYADDFKGRFTISRDTSKSTAYLQISSLKAEDTAVYYCVRVGRYDYAMDYWGQGTTVTVSS VL: DIQMTQSPSSLSASVGDRVTITCRASQDVYTAVAWYQQKPGKAPKLLINQASSRPTGVPSRFSGSGSGTDFTLTISSLQPEDFATYYCQQYYSTPPTFGGGTKVEIK",Kd,[4],4.49 nM
same,kon,[4],106000 M⁻¹ s⁻¹
"Hu2126-H2K1-L71-H72b-Mu12 (antibody, IgG1, V domains shown, IgG1/Cκ; also called 7172b-Mu12) VH: QVQLVQSGSELKKPGASVKVSCKASGYTFTDYSMHWVRQAPGQGLEWMGWINTGTGEPTYADDFKGRFTISRDTSKSTAYLQISSLKAEDTAVYYCVRVGRYDYAMDYWGQGTTVTVSS VL: DIQMTQSPSSLSASVGDRVTITCRASQDVYTAVAWYQQKPGKAPKLLINEASSRPTGVPSRFSGSGSGTDFTLTISSLQPEDFATYYCQQYYSTPPTFGGGTKVEIK",Kd,[4],6.74 nM
same,kon,[4],78300 M⁻¹ s⁻¹
"Hu2126-H2K1-L71-H72b-Mu13 (antibody, IgG1, V domains shown, IgG1/Cκ; also called 7172b-Mu13) VH: QVQLVQSGSELKKPGASVKVSCKASGYTFTDYSMHWVRQAPGQGLEWMGWINTGTGEPTYADDFKGRFTISRDTSKSTAYLQISSLKAEDTAVYYCVRVGRYDYAMDYWGQGTTVTVSS VL: DIQMTQSPSSLSASVGDRVTITCRASQDVYTAVAWYQQKPGKAPKLLINKASSRPTGVPSRFSGSGSGTDFTLTISSLQPEDFATYYCQQYYSTPPTFGGGTKVEIK",Kd,[4],7.23 nM
same,koff,[4],0.000707 s⁻¹
same,kon,[4],97800 M⁻¹ s⁻¹
"Hu2126-H2K1-L71-H72b-Mu18 (antibody, IgG1, V domains shown, IgG1/Cκ; also called 7172b-Mu18) VH: QVQLVQSGSELKKPGASVKVSCKASGYTFTDYSMHWVRQAPGQGLEWMGWINTGTGEPTYADDFKGRFTISRDTSKSTAYLQISSLKAEDTAVYYCVRVGRYDYAMDYWGQGTTVTVSS VL: DIQMTQSPSSLSASVGDRVTITCRASQDVYTAVAWYQQKPGKAPKLLINWASSRPTGVPSRFSGSGSGTDFTLTISSLQPEDFATYYCQQYYSTPPTFGGGTKVEIK",Kd,[4],7.96 nM
same,kon,[4],124000 M⁻¹ s⁻¹
"Hu2126-H2K1-L71-H72b-Mu19 (antibody, IgG1, V domains shown, IgG1/Cκ; also called 7172b-Mu19) VH: QVQLVQSGSELKKPGASVKVSCKASGYTFTDYSMHWVRQAPGQGLEWMGWINTGTGEPTYADDFKGRFTISRDTSKSTAYLQISSLKAEDTAVYYCVRVGRYDYAMDYWGQGTTVTVSS VL: DIQMTQSPSSLSASVGDRVTITCRASQDVYTAVAWYQQKPGKAPKLLINYASSRPTGVPSRFSGSGSGTDFTLTISSLQPEDFATYYCQQYYSTPPTFGGGTKVEIK",Kd,[4],2.9 nM
same,koff,[4],0.000314 s⁻¹
same,kon,[4],108000 M⁻¹ s⁻¹
"Mu2117HK (Fc fusion, scFv-hIgG1 Fc fusion of mAb2117 V regions, VH-(G4S)3-VL; also called chimeric single-chain antibody control; not shown: human IgG1 Fc) scFv: EVKIEESGGGLVKPGGSLKLSCAASGFTYSSYGMSWVRQTPEKRLEWVASISGGGSYTKYPDSVKGRFTISRDNAKNHLYLQMSSLRSEDTALYYCARDYAGFFDVWGAGTTVTVSSGGGGSGGGGSGGGGSDVVLTQTPLSLPVSLGDQASISCRSSQSLVHSNGNTYLHWYLQKPGQSPKLLIYKVSNRFSGVPDRFSGSGSGTDFTLKISRVEAEDLGVYFCSQSTHVPYTFGGGTKLEIK",Kd,[1],76 nM
same,koff,[1],0.00523 s⁻¹
same,kon,[1],68800 M⁻¹ s⁻¹
"Hu2117-HK203 (Fc fusion, scFv-hIgG1 Fc; not shown: human IgG1 Fc) scFv: EVQLVESGGGLVQPGGSLRLSCAASGFTYSSYGMSWVRQAPGKGLEWVASISGGGNYAKYVDSVKGRFTISRDNSKNTLYLQMNSLRAEDTAVYYCARDYVGFFDVWGQGTLVTVSSGGGGSGGGGSGGGGSDIQMTQSPSSLSASVGDRVTITCRSSQSLVHSNRNTYLHWYQQKPGKAPKLLIYKVSNRFSGVPSRFSGSGSGTDFTLTISSLQPEDFATYFCSQSTHVPYTFGQGTKVEIK",EC50,[5],0.144 µg/mL
same,EC50,[6],0.102 µg/mL
"Hu2117-HK310 (Fc fusion, scFv-hIgG1 Fc; not shown: human IgG1 Fc) scFv: EVQLVESGGGLVQPGGSLRLSCAASGFTYSSYGMSWVRQAPGKGLEWVASISGGGNYAKYVDNVKGRFTISRDNSKNTLYLQMNSLRAEDTAVYYCARDYVGFFDVWGQGTLVTVSSGGGGSGGGGSGGGGSDIQMTQSPSSLSASVGDRVTITCRSSQSLVHSNRNTYLHWYQQKPGKAPKLLIYKVSNRFSGVPSRFSGSGSGTDFTLTISSLQPEDFATYFCSQSTHVPYTFGQGTKVEIK",EC50,[5],0.157 µg/mL
same,EC50,[6],0.103 µg/mL
"Hu2117-HK303 (Fc fusion, scFv-hIgG1 Fc; not shown: human IgG1 Fc) scFv: EVQLVESGGGLVQPGGSLRLSCAASGFTYSSYGMSWVRQAPGKGLEWVASISGGGNYAKYVESVKGRFTISRDNSKNTLYLQMNSLRAEDTAVYYCARDYVGFFDVWGQGTLVTVSSGGGGSGGGGSGGGGSDIQMTQSPSSLSASVGDRVTITCRSSQSLVHSNRNTYLHWYQQKPGKAPKLLIYKVSNRFSGVPSRFSGSGSGTDFTLTISSLQPEDFATYFCSQSTHVPYTFGQGTKVEIK",EC50,[5],0.129 µg/mL
same,EC50,[6],0.101 µg/mL
"Hu2117-HK304 (Fc fusion, scFv-hIgG1 Fc; not shown: human IgG1 Fc) scFv: EVQLVESGGGLVQPGGSLRLSCAASGFTYSSYGMSWVRQAPGKGLEWVASISGGGNYAKYVPSVKGRFTISRDNSKNTLYLQMNSLRAEDTAVYYCARDYVGFFDVWGQGTLVTVSSGGGGSGGGGSGGGGSDIQMTQSPSSLSASVGDRVTITCRSSQSLVHSNRNTYLHWYQQKPGKAPKLLIYKVSNRFSGVPSRFSGSGSGTDFTLTISSLQPEDFATYFCSQSTHVPYTFGQGTKVEIK",EC50,[5],0.0622 µg/mL
same,EC50,[6],0.0922 µg/mL
"Hu2117-HK309 (Fc fusion, scFv-hIgG1 Fc; not shown: human IgG1 Fc) scFv: EVQLVESGGGLVQPGGSLRLSCAASGFTYSSYGMSWVRQAPGKGLEWVASISGGGNYAKYVDKVKGRFTISRDNSKNTLYLQMNSLRAEDTAVYYCARDYVGFFDVWGQGTLVTVSSGGGGSGGGGSGGGGSDIQMTQSPSSLSASVGDRVTITCRSSQSLVHSNRNTYLHWYQQKPGKAPKLLIYKVSNRFSGVPSRFSGSGSGTDFTLTISSLQPEDFATYFCSQSTHVPYTFGQGTKVEIK",EC50,[5],0.0956 µg/mL
same,EC50,[6],0.103 µg/mL
"Hu2117KH (Fc fusion, not shown: human IgG1 Fc) scFv: DIQMTQSPSSLSASVGDRVTITCRSSQSLVHSNGNTYLHWYQQKPGKAPKLLIYKVSNRFSGVPSRFSGSGSGTDFTLTISSLQPEDFATYFCSQSTHVPYTFGQGTKVEIKGGGGSGGGGSGGGGSEVQLVESGGGLVQPGGSLRLSCAASGFTYSSYGMSWVRQAPGKGLEWVASISGGGSYTKYPDSVKGRFTISRDNSKNTLYLQMNSLRAEDTAVYYCARDYAGFFDVWGQGTLVTVSS",Kd,[1],147 nM
same,koff,[1],0.00381 s⁻¹
same,kon,[1],25900 M⁻¹ s⁻¹
